According to patent publication US20220251228A1 (SHANGHAI HANSOH BIOMEDICAL, published 2022):

T1: human BCMA on NCI-H929 tumor cells (human, UniProt Q02223 1-184)
T1 sequence (looked up): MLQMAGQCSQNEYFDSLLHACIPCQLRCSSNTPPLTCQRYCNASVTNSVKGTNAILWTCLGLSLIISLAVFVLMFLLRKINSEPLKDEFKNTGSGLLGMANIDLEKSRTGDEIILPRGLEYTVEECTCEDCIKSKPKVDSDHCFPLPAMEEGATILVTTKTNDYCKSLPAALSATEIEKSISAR

B1: humanized anti-BCMA antibody Ab2 (antibody, human IgG1, kappa, V domains shown)
VH: QVQLVQSGAEVKKPGASVKVSCKASGYSFSDYEMHWVRQAPGQGLEWIGGIHPGSGGSAYNQKFKGRVTLTVDKSTSTAYMELSSLRSEDTAVYYCTRLDYGYSWAWFPYWGQGTLVTVSA
VL: EIVLTQSPATLSLSPGERATLSCSASSSVIYMNWYQQKPGQSPKIWIYGISNLASGVPARFSGSGSGTDFTLTISSLEPEDFAVYYCQQRSSYPLTFGGGTKVEIKR
B2: humanized anti-BCMA antibody Ab3 (antibody, human IgG1, kappa, V domains shown)
VH: QVQLVQSGAEVKKPGASVKVSCKASGYSFSDYEMHWVRQAPGQGLEWIGGIHPGSGGSAYNQKFKGKATLTVDKSTSTAYMELSSLRSEDTAVYYCTRLDYGYSWAWFPYWGQGTLVTVSA
VL: EILLTQSPATLSLSPGERATLTCSASSSVIYMNWYQQKPGSSPKIWIYGISNLASGVPARFSGSGSGTSFTLTISSLEPEDFAVYYCQQRSSYPLTFGGGTKVEIKR
B3: humanized anti-BCMA antibody Ab1 (antibody, human IgG1, kappa, V domains shown)
VH: QVQLVQSGAEVKKPGASVKVSCKASGYSFSDYEMHWVRQAPGQGLEWMGGIHPGSGGSAYNQKFKGRVTMTRDTSTSTVYMELSSLRSEDTAVYYCTRLDYGYSWAWFPYWGQGTLVTVSA
VL: EIVLTQSPATLSLSPGERATLSCSASSSVIYMNWYQQKPGQAPRLLIYGISNLASGIPARFSGSGSGTDFTLTISSLEPEDFAVYYCQQRSSYPLTFGGGTKVEIKR

Target: T1, human BCMA on NCI-H929 tumor cells
Test: cell-based or functional assay

Binder	Endocytosis efficiency % (0.5 hour) [%]	Endocytosis efficiency % (2 hours) [%]
B1	36.7	48
B2	35.5	45.7
B3	36.6	49.5
